Here are results for one molecule from patent publication US20090060925A1, “Rage Fusion Proteins and Methods of Use” (THE TRUSTEES OF COLUMBIA UNIVERSITY IN THE CITY OF, priority 2004, published 2009).

One series deals with amyloid-beta. Description: Competition of a RAGE ligand with immobilized amyloid-beta for binding to the fusion protein. The following applies: RAGE ligand FAC 10 μM. Here is the method: The fusion protein of the present invention may also be used to identify compounds having the ability to bind to RAGE.
Known RAGE ligands were coated onto the surface of Maxisorb plates at a concentration of 5 micrograms per well. Plates were incubated at 4° C. overnight. Following ligand incubation, plates were aspirated and a blocking buffer of 1% BSA in 50 mM imidizole buffer (pH 7.2) was added to the plates for 1 hour at room temperature. The plates were then aspirated and/or washed with wash buffer (20 mM Imidizole, 150 mM NaCl, 0.05% Tween-20, 5 mM CaCl2 and 5 mM MgCl2, pH 7.2). […] The fusion protein was added at increasing dilutions of the initial sample. The RAGE fusion protein was allowed to incubate with the immobilized ligand at 37° C. for one hour after which the plate was washed and assayed for binding of the fusion protein. Binding was detected by the addition of an immunodetection complex containing a monoclonal mouse anti-human IgG1 diluted 1:11,000 to a final assay concentration (FAC) of 21 ng/100 μL, a biotinylated goat anti-mouse IgG diluted 1:500, to a FAC of […], and an avidin-linked alkaline phosphatase. […] Binding of the complex to the immobilized fusion protein was quantified by measuring conversion of PNPP to para-nitrophenol (PNP) which was measured spectrophotometrically at 405 nm. […]

Series [1] concerns S100b/RAGE-induced production of TNF-α in THP-1 cells. The series can be described thus: Inhibition of S100b/RAGE-induced production of TNF-α in THP-1 cells. The format is cell-based. As to conditions: 10 μg protein, S100b 0.1 mg/ml, 24 hours. The method, then: THP-1 myeloid cells may be cultured in RPMI-1640 media supplemented with 10% FBS and induced to secrete TNF-α via stimulation of RAGE with S100b. When such stimulation occurs in the presence of a RAGE fusion protein, induction of TNF-α by S100b binding to RAGE may be inhibited.
Previous work has shown that the myeloid THP-1 cells may secrete TNF-α in response to RAGE ligands. In this assay, THP-1 cells were cultured in RPMI-1640 media supplemented with 10% FBS using a protocol provided by ATCC. […] The amount of TNF-α secreted by the THP-1 cells was measured 24 hours after the addition of the proteins to the cell culture using a commercially available ELISA kit for TNF-α (R&D Systems, Minneapolis, Minn.).

The next series deals with Fc receptor. Description: Fc receptor activation, TNF-α secretion from THP-1 cells. Type of series: cell-based. As to conditions: well precoated with 10 ug/well heat aggregated protein; 24 hours. The text has this: Fc stimulation results in TNF-α secretion.
Another series has as its system animal model of stroke. Description: Mouse model of stroke (carotid artery ligation and reperfusion, infarct). Type of series: in vivo. As to conditions: Table 2.

Procedure for animal model of stroke: In this model, the middle carotid artery of a mouse was ligated for 1 hour followed by 23 hours of reperfusion at which point the mice were sacrificed and the area of the infarct in the brain was assessed. […] Mice were injected intraperitoneally, 1 hour after the initiation of ischemia. Mice were subjected to one hour of cerebral ischemia followed by 24 hours of reperfusion. To induce ischemia, each mouse was anesthetized and body temperature was maintained at 36-37° C. by external warming. The left common carotid artery (CCA) was exposed through a midline incision in the neck. A microsurgical clip was placed around the origin of the internal carotid artery (ICA). […] After the nylon suture had been in place for 1 hour, the animal was re-anesthetized, rectal temperature was recorded and the suture was removed and the incision closed. Infarct volume was determined by anesthetizing the animals with an intraperitoneal injection of sodium pentobarbital (50 mg/kg) and then removing the brains. […] The infarct area in each section was determined with a computer-assisted image analysis system, consisting of a Power Macintosh computer equipped with a Quick Capture frame grabber card, Hitachi CCD camera mounted on a camera stand. […] The images were captured and the total area of infarct was determined over the sections. […] Summing the infarct volumes of the sections calculated the total infarct volume. […]

B1: TTP-4000: four domain RAGE fusion protein, SEQ ID NO: 32: human RAGE amino acids 1-251 linked to CH2 and CH3 domains of human IgG (protein, listed as Homo sapiens)
chain: MAAGTAVGAWALVLSLWGAVVGAQNITARIGEPLVLKCKGAPKKPPQRLEWKLNTGRTEAWKVLSPQGGGPWDSVARVLPNGSLFLPAVGIQDEGIFRCQAMNRNGKETKSNYRVRVYQIPGKPEIVDSASELTAGVPNKVGTCVSEGSYPAGTLSWHLDGKPLVPNEKGVSVKEQTRRHPETGLFTLQSELMVTPARGGDPRPTFSCSFSPGLPRHRALRTAPIQPRVWEPVPLEEVQLVVEPEGGAVAPPSVFLFPPKPKDTLMISRTPEVTCVVVDVSHEDPEVKFNWYVDGVEVHNAKTKPREEQYNSTYRVVSVLTVLHQDWLNGKEYKCKVSNKALPAPIEKTISKAKGQPREPQVYTLPPSRDELTKNQVSLTCLVKGFYPSDIAVEWESNGQPENNYKTTPPVLDSDGSFFLYSKLTVDKSRWQQGNVFSCSVMHEALHNHYTQKSLSLSPGK
B1: the “binding of fusion protein to immobilized amyloid-beta inhibited by the RAGE ligand” value with amyloid-beta (fusion protein initial solution diluted 1:10) and in the series on amyloid-beta (fusion protein initial solution diluted 1:30) was “completely inhibited” each time. In addition, in series [1], the “effect on S100b induction of TNF-α, in words” value is “at least as effective in blocking S100b induction of TNF-α as is sRAGE”. The “TNF secreted by THP-1 cells” value with Fc receptor is “less than 2 ng/well”. In addition, the “limiting the area of infarct, compared with sRAGE” value in the series with animal model of stroke is “more efficacious than sRAGE”.
